Experimental data: publication PMC4838357

What was measured:
Test in all cases: MITOMI
[1] = target: Zif268 R70A (mouse, UniProt P08046 333-421, R401A)
[2] = target: Zif268 I28A (mouse, UniProt P08046 333-421, I359A)
[3] = target: Zif268 R14A (mouse, UniProt P08046 333-421, R345A)

Measured: binding result

B1: target_268wt (Zif268 consensus) (dsDNA)
DNA 1: GGCCAATTAGCGTGGGCGTTTTCCGGCGGTATGAC
DNA 2: GTCATACCGCCGGAAAACGCCCACGCTAATTGGCC
binds: all assays above
